Reference: patent US20100009907A1, “Glucagon-Like Peptides and Uses Thereof” (AMYLIN PHARMACEUTICALS, INC., priority 2006, published 2010)

T1: GLP-1 receptor (endogenous, RINm5F cell membranes; rat thyroid carcinoma 6-23 clone 6 cells) (rat, UniProt P32301 22-463)
T1 sequence (looked up): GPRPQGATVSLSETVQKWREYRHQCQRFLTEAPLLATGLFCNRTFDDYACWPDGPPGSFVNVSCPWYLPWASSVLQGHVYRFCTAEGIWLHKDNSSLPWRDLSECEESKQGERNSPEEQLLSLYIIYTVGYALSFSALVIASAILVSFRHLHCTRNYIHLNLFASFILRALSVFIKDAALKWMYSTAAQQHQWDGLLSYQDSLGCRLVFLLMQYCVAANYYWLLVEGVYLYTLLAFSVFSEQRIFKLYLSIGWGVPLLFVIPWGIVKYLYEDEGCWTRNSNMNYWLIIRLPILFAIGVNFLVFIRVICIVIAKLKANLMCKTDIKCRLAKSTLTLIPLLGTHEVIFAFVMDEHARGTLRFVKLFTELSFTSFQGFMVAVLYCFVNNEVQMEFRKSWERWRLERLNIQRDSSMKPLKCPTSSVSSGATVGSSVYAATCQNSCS


Target: T1, GLP-1 receptor (endogenous, RINm5F cell …)
Test: cell-based or functional assay

Row | Binder | GLP-1 cAMP (6-23) EC50 [nM]
1 | HAEGTYTNDVTEYLEEKAAKEFIEWLI [SEQ ID NO 42] | 0.22
2 | EGTYTNDVTEYLEEKAAKEFIEWLIKGKPKKIRYS (also called nmGLP-1 analog) [SEQ ID NO 37] | > 1000
3 | HAEGTYTNDVTEYLEEKAAKEFIEWL [SEQ ID NO 44] | 23
4 | HXEGTYTNDVTEYLEEKAAKEFIEWLI (dAla at position 2 (a = dAla)) [SEQ ID NO 43] | 0.14
5 | HXEGTYTNDVTEYLEEKAAKEFIEWL (dAla at position 2 (a = dAla)) [SEQ ID NO 45] | 34
6 | HXEGTYTNDVTQFLEEKAAKEFIDWLIKGKPKKQRLS (Abu (2-Aminobutyric acid) at position 2) | 0.12
7 | HAEGTYTNDVTEYLEEKAAKEFIEWLIGKPKKIRYS (also called nmGLP-1 analog) [SEQ ID NO 35] | 0.172
8 | HAEGTYTNDVTEYLEEKAAKEFIEWLIKGPKKIRYS (also called nmGLP-1 analog) [SEQ ID NO 36] | 0.086
9 | HAEGTYTNDVTEYLEEKAAKEFIEWLIPKKIRYS (also called nmGLP-1 analog) [SEQ ID NO 32] | 8.3
10 | HAEGTYTNDVTEYLEEKAAKFIEWLIKGKPKKIRYS (also called nmGLP-1 analog) [SEQ ID NO 31] | 44
11 | HAEGTYTNDVTEYLEEKAAKEFIEW [SEQ ID NO 46] | 1940
12 | HAEGTYTNDVTEYLEEKAAKEFIEWLIKGKPK [SEQ ID NO 40] | 0.12

Target: endogenous GLP-1, calcitonin, and GIP receptors of RINm5f cells
Test: cell-based or functional assay

Row | Binder | GLP/GIP/CT cAMP(RIN) EC50 [nM]
13 | HAEGTFTSDVTQQLDEKAAKEFIDWLINGGPSSGAPPPS [SEQ ID NO 9] | 0.28
14 | HAEGTFTSDVTQQLDEKAAKEFIDALINGGPSKEIIS (also called nmGLP-1 analog) [SEQ ID NO 13] | 196
15 | HXEGTFTSDVTQQLDEKAAKEFIDWLINGGPSKEIIS (here or on the partner: dAla at position 2 (a = dAla)) [SEQ ID NO 10] | 0.048
16 | HXEGTFTSDVTQQLDEKAAKEFIDWLIN (here or on the partner: dAla at position 2 (a = dAla)) [SEQ ID NO 8] | 19
17 | HAEGTFTNDMTNYLEEKAAKEFVGWLIKGRS (also called nmGLP-1 analog) [SEQ ID NO 6] | 1.23
18 | HAEGTYTNDVTQFLEEKAAKEFIDWLIKGKPKKQRLS [SEQ ID NO 50] | 0.14
19 | HXEGTYTNDVTQFLEEKAAKEFIDWLIKGKPKKQRLS (here or on the partner: dAla at position 2 (a = dAla)) [SEQ ID NO 54] | 0.435
20 | HXEGTYTNDVTQFLEEKAAKEFIDWLIKGKPKKQRLS (here or on the partner: Abu (2-Aminobutyric acid) at position 2) | 0.146
21 | HAEGTFTSDVTQQLDEKAAKEFIDWLIN (also called nmGLP-1 analog) [SEQ ID NO 7] | 4.7
22 | HXEGTYTNDVTEYLEEKAAKEFIEWLIKGKPKKIRYS (here or on the partner: dAla at position 2 (a = dAla)) [SEQ ID NO 23] | 0.22
23 | HXEGTYTNDVTEYLEEKAAKEFIEWLIKGKPKKIRYS (here or on the partner: Aib (2-Aminoisobutyric acid) at position 2) [SEQ ID NO 27] | 0.544
